Test results published in patent publication US20050118674A1, “Engineering of Controlled Deamidation Rates in Peptides, Proteins, and Similar Structures” (priority 2003, published 2005).

Assay: First-order nonenzymatic deamidation of pentapeptides in Tris buffer
Format: physicochemical
Conditions: pH 7.4, 37.0° C., 0.15 M Tris HCl; Asn pentapeptides
Outline: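 Pentapeptides containing Asn or Gln in varied flanking sequences incubated at 37° C., pH 7.4, 0.15 M Tris buffer; first-order deamidation rates measured. Some Asn values estimated from remaining data; many Gln values derived from surface fitting rather than measured.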

First: GlyPheAsnAlaGly (GFNAG; printed: GlyPheAsnAlaGly)
Second: GlyPheAsnAmCysGly
The “First-Order Deamidation Halftimes of GlyXxxAsnYyyGly” value of the first is lower: 24.2 days for the first, 29.8 days for the second.

Compared with “GlyPheAsnArgGly (GFNRG; printed: GlyPheAsnArgGly)”, “GlyPheAsnAspGly (GFNDG; printed: GlyPheAsnAspGly)” is lower in “First-Order Deamidation Halftimes of GlyXxxAsnYyyGly” value: 61.2 days for the first, 27.4 days for the second.

Going from “GlyPheAsnCysGly (GFNCG; printed: GlyPheAsnCysGly)” to “GlyPheAsnGluGly (GFNEG; printed: GlyPheAsnGluGly)”, the “First-Order Deamidation Halftimes of GlyXxxAsnYyyGly” value rises from 46.5 days to 62.4 days.

Going from “GlyPheAsnGlyGly (GFNGG; printed: GlyPheAsnGlyGly)” to “GlyPheAsnHisGly (GFNHG; printed: GlyPheAsnHisGly)”, the “First-Order Deamidation Halftimes of GlyXxxAsnYyyGly” value rises from 1.15 days to 10.2 days.

Compared with “GlyPheAsnIleGly (GFNIG; printed: GlyPheAsnIleGly)”, “GlyPheAsnLeuGly (GFNLG; printed: GlyPheAsnLeuGly)” is lower in “First-Order Deamidation Halftimes of GlyXxxAsnYyyGly” value: 287 days for the first, 118 days for the second.

Compared with “GlyPheAsnLysGly (GFNKG; printed: GlyPheAsnLysGly)”, “GlyPheAsnMetGly (GFNMG; printed: GlyPheAsnMetGly)” is higher in “First-Order Deamidation Halftimes of GlyXxxAsnYyyGly” value: 58.2 days for the first, 58.6 days for the second.

First: GlyPheAsnPheGly (GFNFG; printed: GlyPheAsnPheGly)
Second: GlyPheAsnProGly (GFNPG; printed: GlyPheAsnProGly)
The “First-Order Deamidation Halftimes of GlyXxxAsnYyyGly” value of the first is lower: 69.5 days for the first, 7990 days for the second.

Compared with “GlyPheAsnSerGly (GFNSG; printed: GlyPheAsnSerGly)”, “GlyPheAsnThrGly (GFNTG; printed: GlyPheAsnThrGly)” is higher in “First-Order Deamidation Halftimes of GlyXxxAsnYyyGly” value: 18.1 days for the first, 39.0 days for the second.

Compared with “GlyPheAsnTrpGly (GFNWG; printed: GlyPheAsnTrpGly)”, “GlyPheAsnTyrGly (GFNYG; printed: GlyPheAsnTyrGly)” is lower in “First-Order Deamidation Halftimes of GlyXxxAsnYyyGly” value: 102 days for the first, 75.1 days for the second.

Compared with “GlyPheAsnValGly (GFNVG; printed: GlyPheAsnValGly)”, “GlyProAsnAlaGly (GPNAG; printed: GlyProAsnAlaGly)” is lower in “First-Order Deamidation Halftimes of GlyXxxAsnYyyGly” value: 203 days for the first, 31.8 days for the second.

First: GlyProAsnAmCysGly
Second: GlyProAsnArgGly (GPNRG; printed: GlyProAsnArgGly)
The “First-Order Deamidation Halftimes of GlyXxxAsnYyyGly” value of the first is lower: 43.7 days for the first, 72.9 days for the second.

Compared with “GlyProAsnAspGly (GPNDG; printed: GlyProAsnAspGly)”, “GlyProAsnCysGly (GPNCG; printed: GlyProAsnCysGly)” is higher in “First-Order Deamidation Halftimes of GlyXxxAsnYyyGly” value: 48.6 days for the first, 60.0 days for the second.

Going from “GlyProAsnGluGly (GPNEG; printed: GlyProAsnGluGly)” to “GlyProAsnGlyGly (GPNGG; printed: GlyProAsnGlyGly)”, the “First-Order Deamidation Halftimes of GlyXxxAsnYyyGly” value falls from 92.0 days to 1.18 days.

Compared with “GlyProAsnHisGly (GPNHG; printed: GlyProAsnHisGly)”, “GlyProAsnIleGly (GPNIG; printed: GlyProAsnIleGly)” is higher in “First-Order Deamidation Halftimes of GlyXxxAsnYyyGly” value: 12.8 days for the first, 455 days for the second.

First: GlyProAsnLeuGly (GPNLG; printed: GlyProAsnLeuGly)
Second: GlyProAsnLysGly (GPNKG; printed: GlyProAsnLysGly)
The “First-Order Deamidation Halftimes of GlyXxxAsnYyyGly” value of the first is higher: 181 days for the first, 67.8 days for the second.

Compared with “GlyProAsnMetGly (GPNMG; printed: GlyProAsnMetGly)”, “GlyProAsnPheGly (GPNFG; printed: GlyProAsnPheGly)” is higher in “First-Order Deamidation Halftimes of GlyXxxAsnYyyGly” value: 78.4 days for the first, 100 days for the second.

First: GlyProAsnProGly (GPNPG; printed: GlyProAsnProGly)
Second: GlyProAsnSerGly (GPNSG; printed: GlyProAsnSerGly)
The “First-Order Deamidation Halftimes of GlyXxxAsnYyyGly” value of the first is higher: 6590 days for the first, 18.9 days for the second.

Going from “GlyProAsnThrGly (GPNTG; printed: GlyProAsnThrGly)” to “GlyProAsnTrpGly (GPNWG; printed: GlyProAsnTrpGly)”, the “First-Order Deamidation Halftimes of GlyXxxAsnYyyGly” value rises from 63.1 days to 122 days.

Going from “GlyProAsnTyrGly (GPNYG; printed: GlyProAsnTyrGly)” to “GlyProAsnValGly (GPNVG; printed: GlyProAsnValGly)”, the “First-Order Deamidation Halftimes of GlyXxxAsnYyyGly” value rises from 114 days to 364 days.

Same assay, conditions: pH 7.4, 37.0 ° C., 0.15 M Tris HCl; Gln pentapeptides; 52 values measured, rest derived from surface fitting

First: GlyMetGlnProGly (GMQPG; printed: GlyMetGlnProGly)
Second: GlyMetGlnSerGly (GMQSG; printed: GlyMetGlnSerGly)
The “First-Order Deamidation Halftimes of GlyXxxGlnYyyGly” value of the first is higher: 7300 days for the first, 4100 days for the second.

Going from “GlyMetGlnThrGly (GMQTG; printed: GlyMetGlnThrGly)” to “GlyMetGlnTrpGly (GMQWG; printed: GlyMetGlnTrpGly)”, the “First-Order Deamidation Halftimes of GlyXxxGlnYyyGly” value rises from 3800 days to 9400 days.

First: GlyMetGlnTyrGly (GMQYG; printed: GlyMetGlnTyrGly)
Second: GlyMetGlnValGly (GMQVG; printed: GlyMetGlnValGly)
The “First-Order Deamidation Halftimes of GlyXxxGlnYyyGly” value of the first is higher: 8200 days for the first, 5000 days for the second.

Compared with “GlyPheGlnAlaGly (GFQAG; printed: GlyPheGlnAlaGly)”, “GlyPheGlnArgGly (GFQRG; printed: GlyPheGlnArgGly)” is higher in “First-Order Deamidation Halftimes of GlyXxxGlnYyyGly” value: 6300 days for the first, 7200 days for the second.

First: GlyPheGlnAspGly (GFQDG; printed: GlyPheGlnAspGly)
Second: GlyPheGlnCysGly (GFQCG; printed: GlyPheGlnCysGly)
The “First-Order Deamidation Halftimes of GlyXxxGlnYyyGly” value of the first is higher: 8200 days for the first, 2000 days for the second.

Going from “GlyPheGlnGluGly (GFQEG; printed: GlyPheGlnGluGly)” to “GlyPheGlnGlyGly (GFQGG; printed: GlyPheGlnGlyGly)”, the “First-Order Deamidation Halftimes of GlyXxxGlnYyyGly” value falls from 8100 days to 660 days.

Compared with “GlyPheGlnHisGly (GFQHG; printed: GlyPheGlnHisGly)”, “GlyPheGlnIleGly (GFQIG; printed: GlyPheGlnIleGly)” is higher in “First-Order Deamidation Halftimes of GlyXxxGlnYyyGly” value: 6200 days for the first, 6400 days for the second.

Going from “GlyPheGlnLeuGly (GFQLG; printed: GlyPheGlnLeuGly)” to “GlyPheGlnLysGly (GFQKG; printed: GlyPheGlnLysGly)”, the “First-Order Deamidation Halftimes of GlyXxxGlnYyyGly” value falls from 6400 days to 6200 days.

Compared with “GlyPheGlnMetGly (GFQMG; printed: GlyPheGlnMetGly)”, “GlyPheGlnPheGly (GFQFG; printed: GlyPheGlnPheGly)” is higher in “First-Order Deamidation Halftimes of GlyXxxGlnYyyGly” value: 5100 days for the first, 8200 days for the second.

Compared with “GlyPheGlnProGly (GFQPG; printed: GlyPheGlnProGly)”, “GlyPheGlnSerGly (GFQSG; printed: GlyPheGlnSerGly)” is lower in “First-Order Deamidation Halftimes of GlyXxxGlnYyyGly” value: 10000 days for the first, 5900 days for the second.

Compared with “GlyPheGlnThrGly (GFQTG; printed: GlyPheGlnThrGly)”, “GlyPheGlnTrpGly (GFQWG; printed: GlyPheGlnTrpGly)” is higher in “First-Order Deamidation Halftimes of GlyXxxGlnYyyGly” value: 5300 days for the first, 16000 days for the second.

Compared with “GlyPheGlnTyrGly (GFQYG; printed: GlyPheGlnTyrGly)”, “GlyPheGlnValGly (GFQVG; printed: GlyPheGlnValGly)” is lower in “First-Order Deamidation Halftimes of GlyXxxGlnYyyGly” value: 12000 days for the first, 7100 days for the second.

Compared with “GlyProGlnAlaGly (GPQAG; printed: GlyProGlnAlaGly)”, “GlyProGlnArgGly (GPQRG; printed: GlyProGlnArgGly)” is higher in “First-Order Deamidation Halftimes of GlyXxxGlnYyyGly” value: 4700 days for the first, 6400 days for the second.

First: GlyProGlnAspGly (GPQDG; printed: GlyProGlnAspGly)
Second: GlyProGlnCysGly (GPQCG; printed: GlyProGlnCysGly)
The “First-Order Deamidation Halftimes of GlyXxxGlnYyyGly” value of the first is higher: 7200 days for the first, 1600 days for the second.

First: GlyProGlnGluGly (GPQEG; printed: GlyProGlnGluGly)
Second: GlyProGlnGlyGly (GPQGG; printed: GlyProGlnGlyGly)
The “First-Order Deamidation Halftimes of GlyXxxGlnYyyGly” value of the first is higher: 6800 days for the first, 630 days for the second.

First: GlyProGlnHisGly (GPQHG; printed: GlyProGlnHisGly)
Second: GlyProGlnIleGly (GPQIG; printed: GlyProGlnIleGly)
The “First-Order Deamidation Halftimes of GlyXxxGlnYyyGly” value of the first is lower: 5200 days for the first, 6000 days for the second.

Compared with “GlyProGlnLeuGly (GPQLG; printed: GlyProGlnLeuGly)”, “GlyProGlnLysGly (GPQKG; printed: GlyProGlnLysGly)” is lower in “First-Order Deamidation Halftimes of GlyXxxGlnYyyGly” value: 5800 days for the first, 5500 days for the second.

First: GlyProGlnMetGly (GPQMG; printed: GlyProGlnMetGly)
Second: GlyProGlnPheGly (GPQFG; printed: GlyProGlnPheGly)
The “First-Order Deamidation Halftimes of GlyXxxGlnYyyGly” value of the first is lower: 4500 days for the first, 7300 days for the second.

Compared with “GlyProGlnProGly (GPQPG; printed: GlyProGlnProGly)”, “GlyProGlnSerGly (GPQSG; printed: GlyProGlnSerGly)” is lower in “First-Order Deamidation Halftimes of GlyXxxGlnYyyGly” value: 8900 days for the first, 4600 days for the second.

First: GlyProGlnThrGly (GPQTG; printed: GlyProGlnThrGly)
Second: GlyProGlnTrpGly (GPQWG; printed: GlyProGlnTrpGly)
The “First-Order Deamidation Halftimes of GlyXxxGlnYyyGly” value of the first is lower: 4600 days for the first, 13000 days for the second.

Compared with “GlyProGlnTyrGly (GPQYG; printed: GlyProGlnTyrGly)”, “GlyProGlnValGly (GPQVG; printed: GlyProGlnValGly)” is lower in “First-Order Deamidation Halftimes of GlyXxxGlnYyyGly” value: 10000 days for the first, 6200 days for the second.
